Results: publication PMC11277499, “Structural Basis for the Interaction between the Ezrin FERM-Domain and Human Aquaporins” (International Journal of Molecular Sciences, 2024)
Residues, ends and D or L forms follow the SMILES beside them.

Legend:
[1] = target: T1, human ezrin FERM-domain (residues 1–295) (Homo sapiens, UniProt P15311); experiment: Microscale thermophoresis (MST), binding to FERM-Alexa488; settings: Z-test for population means; for Affinity for FERM, full-length AQP compared with its C-terminal tail: significant if p < 0.05
T1 construct: human ezrin FERM-domain (residues 1–295); 8xHis-tag (N); TEV cleavage site (N); made in house; host or cells: E. coli BL21*
T1 sequence (P15311 1-295): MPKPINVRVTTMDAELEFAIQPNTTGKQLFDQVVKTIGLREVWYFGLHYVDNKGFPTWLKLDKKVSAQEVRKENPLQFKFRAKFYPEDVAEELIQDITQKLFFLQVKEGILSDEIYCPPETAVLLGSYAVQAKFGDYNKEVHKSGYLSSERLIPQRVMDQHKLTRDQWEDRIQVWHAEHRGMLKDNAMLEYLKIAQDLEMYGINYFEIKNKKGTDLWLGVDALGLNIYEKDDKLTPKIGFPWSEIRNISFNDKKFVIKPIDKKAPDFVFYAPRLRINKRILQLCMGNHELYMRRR
Experimental: For each AQP, a 1:1 dilution series was made resulting in 12 samples with a concentration range of 0.0419–86.0 μM for AQP2 and 0.029–60.6 μM for AQP5. The samples were mixed with an equal volume of FERM that had been labelled with Alexa-488, transferred to MST capillaries, and MST traces were recorded (Figure S1). From these traces, the difference in normalized fluorescence before and after heating was used to generate a binding curve for each AQP from which the dissociation constant (Kd) could be determined (Figure 3a).
This artefact became even more prominent when the AQP concentration was increased further. As a result, AQP concentrations that would lead to saturation could not be used in the case of AQP5, wherefore the estimated Kd-value should be evaluated with caution.
Next, we set out to investigate if the interaction between FERM and AQP2/AQP5 is mediated by the AQP C-termini as previously proposed. For this purpose, we expressed the AQP2 and AQP5 C-terminal tails (residues 227–271 and 228–265 for AQP2 and AQP5 respectively) as GST-fusion constructs in E. coli. The purified GST-AQP constructs were then cleaved with thrombin, allowing AQP2 and AQP5 C-termini to be separated from the GST-tag. For each AQP C-terminal peptide, a 1:1 dilution series was made resulting in 12 samples for AQP2 (0.072–294.5 μM) and 16 samples (0.001–337.5 μM) for AQP5, mixed with fluorescently labelled FERM, and MST-traces were recorded and analyzed as described above (Figure S1). […] This confirms the C-terminus as the region responsible for the FERM-interaction for both AQP2 and AQP5.
The E. coli codon-optimized gene for the human ezrin FERM-domain (residues 1–295) was synthesized (Genscript, Piscataway, NJ, USA) and cloned into pET15b using the NdeI and BamHI sites. The final construct contained an N-terminal 8xHis-tag followed by a TEV cleavage site. The plasmid was transformed into calcium-competent E. coli cells BL21* by heat shock. 2x1L LB-media supplemented with 100 μg/mL ampicillin was inoculated with a 5 mL overnight culture. […]

Ezrin = settings: co-IP and PLA, NS-SV-AC cells; ref [31]; cited from earlier work
Excerpt: (§1) Several mammalian AQP isoforms have been proposed to directly interact with Ezrin during trafficking.

[2] = target: T2, human ezrin FERM-domain (residues 1-295), labelled with Alexa-488 (human, UniProt P15311 1-295, cysteine-reactive C5 maleimide-Alexa 488 on cysteines); experiment: MST; AQP (full-length or C-terminal peptide) in a 1:1 dilution series mixed with FERM-Alexa488 at 0.125 uM (0.129 uM for the AQP5 C-terminus); Monolith NT.115, room temperature, LED and MST power 80%; premium capillaries (full-length AQP) or standard capillaries (peptides); three dilution series; one-to-one binding model on monomeric AQP concentration; settings: both partners purified
T2 construct: ezrin, human, FERM-domain, residues 1-295; the construct has an N-terminal 8xHis-tag followed by a TEV cleavage site; No TEV cleavage is described in the purification; codon-optimised synthetic gene in pET15b; also called FERM-Alexa488; source: E. coli BL21*, purified (His-trap)
T2 sequence (P15311 1-295): as above

LIP5 = settings: compared with construct truncated immediately after the amphipathic helix; ref [36] Roche et al., 2017; cited from earlier work
Excerpt: Moreover, introduction of pho ...

Ezrin FERM-domain = settings: co-IP and pull-down; ref [30]; cited from earlier work
Excerpt: as §1

CC[C@H](C)[C@H](NC(=O)[C@H](C)NC(=O)[C@@H](NC(=O)[C@H](CCCNC(=N)N)NC(=O)[C@H](CCC(=O)O)NC(=O)[C@H](CO)NC(=O)[C@H](CC(C)C)NC(=O)[C@H](CO)NC(=O)[C@H](CC(C)C)NC(=O)[C@H](CO)NC(=O)[C@H](CC(N)=O)NC(=O)[C@H](CO)NC(=O)CN)C(C)C)C(=O)N[C@H](C(=O)N[C@@H](CCCCN)C(=O)NCC(=O)N[C@H](C(=O)N[C@@H](Cc1ccc(O)cc1)C(=O)N[C@@H](CCC(=O)O)C(=O)N1CCC[C@H]1C(=O)N[C@@H](CC(=O)O)C(=O)N[C@@H](CCC(=O)O)C(=O)N[C@@H](CC(=O)O)C(=O)N[C@@H](Cc1c[nH]c2ccccc12)C(=O)N[C@@H](CCC(=O)O)C(=O)N[C@@H](CCC(=O)O)C(=O)N[C@@H](CCC(N)=O)C(=O)N[C@@H](CCCNC(=N)N)C(=O)N[C@@H](CCC(=O)O)C(=O)N[C@@H](CCC(=O)O)C(=O)N[C@@H](CCCNC(=N)N)C(=O)N[C@@H](CCCCN)C(=O)N[C@@H](CCCCN)C(=O)N[C@H](C(=O)N[C@@H](CCSC)C(=O)N[C@@H](CCC(=O)O)C(=O)N[C@@H](CC(C)C)C(=O)N[C@H](C(=O)N[C@H](C(=O)N[C@@H](CCCNC(=N)N)C(=O)O)[C@@H](C)O)[C@@H](C)O)[C@@H](C)O)[C@@H](C)O)[C@@H](C)CC [AQP5 C-terminal peptide] (H-GSNSLSLSERVAIIKGTYEPDEDWEEQREERKKTMELTTR-OH; N-terminus and C-terminus assumed)
Affinity for FERM, AQP5 C-terminal peptide compared with AQP2 C-terminal peptide [1]: somewhat higher (p < 0.05)

full-length AQP5: human aquaporin 5, untagged, recombinantly produced in Pichia pastoris
Affinity for FERM, full-length AQP compared with its C-terminal tail [1]: significant difference between full-length AQP5 and the AQP5 C-terminal tail (p < 0.05)
Interaction of AQP5 with ezrin (Ezrin): identified an interaction

B1: AQP2 C-terminal tail (residues 227-271) (peptide, UniProt P41181 227-271, looked up)
chain: AKSLSERLAVLKGLEPDTDWEEREVRRRQSVELHSPQSLPRGTKA
notes: aquaporin 2, human, C-terminal tail, residues 227-271; also called AQP2 C-terminal peptide; AQP2 C-terminus; source: E. coli BL21*, GST fusion purified (GSTrap), cleaved with thrombin, separated from GST
Kd [2]: 8.7 ± 2.4 µM

B2: full-length human AQP2 (natural protein, UniProt P41181 1-271, looked up)
chain: MWELRSIAFSRAVFAEFLATLLFVFFGLGSALNWPQALPSVLQIAMAFGLGIGTLVQALGHISGAHINPAVTVACLVGCHVSVLRAAFYVAAQLLGAVAGAALLHEITPADIRGDLAVNALSNSTTAGQAVTVELFLTLQLVLCIFASTDERRGENPGTPALSIGFSVALGHLLGIHYTGCSMNPARSLAPAVVTGKFDDHWVFWIGPLVGAILGSLLYNYVLFPPAKSLSERLAVLKGLEPDTDWEEREVRRRQSVELHSPQSLPRGTKA
notes: aquaporin 2, human, full-length, with an uncleavable His-tag attached to the N-terminus; kept in detergent (0.2% NG); The Kd is fitted on the monomeric AQP concentration; also called Aquaporin 2; source: Pichia pastoris, purified (NG-solubilised membranes, HisTrap, SEC); not shown: His-tag, N-terminal, kept
Kd [2]: 7.8 ± 3.8 µM

B3: full-length AQP2: human aquaporin 2, recombinantly produced in Pichia pastoris, His-tag at the N-terminus (protein)
chain: B2 chain
modifications: left off: His-tag, N-terminal, kept
notes: human aquaporin 2, recombinantly produced in Pichia pastoris, His-tag at the N-terminus
Affinity for FERM, full-length AQP compared with its C-terminal tail [1]: highly similar
Affinity for LIP5 (LIP5): higher affinity
Interaction of AQP2 C-terminal tail with ezrin FERM-domain (Ezrin FERM-domain): direct interaction

B4: AQP5 C-terminal tail (residues 228-265) (peptide, UniProt P55064 228-265, looked up)
chain: NSLSLSERVAIIKGTYEPDEDWEEQREERKKTMELTTR
notes: aquaporin 5, human, C-terminal tail, residues 228-265; Cloned into pET41a (SpeI, AvrII) with a thrombin site (LVPRGS) between GST and the AQP5 C-terminus; also called AQP5 C-terminal peptide; AQP5 C-terminus; source: E. coli BL21*, GST fusion purified (GSTrap), cleaved with thrombin, separated from GST
Kd [2]: 2.9 ± 0.89 µM
